# Reference: the supplement of paper PMC9170038
# Test system: MS2 coat protein
# Assay: apparent KD of MS2 coat protein; designed switch direction (-1 OFF switch, 1 ON switch): 1; higher = weaker reporter binding
# Outline: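 The reported apparent KD is a per-design median over clusters, from curve fits of normalised cluster fluorescence. Protein titrations used SNAP-549-labelled MS2 coat protein, doubled from 0.7 or 1.5 nM to 3 µM, in Tris-HCl pH 7.5 buffer with KCl, MgCl2, BSA, DTT, tRNA and Tween-20, with no input, 200 uM small-molecule ligand, or an oligonucleotide input. The RNA switches were transcribed on Illumina chips by stalled E. coli RNA polymerase.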
# [1] = Eterna round: R95, input ligand: FMN 200 uM
# [2] = Eterna round: R95, input ligand: microRNA oligo, concentration not stated
# [3] = Eterna round: R95, input ligand: none
# [4] = input ligand: microRNA oligo, concentration not stated
Sequence,apparent KD of MS2 coat protein [1] [nM],apparent KD of MS2 coat protein [2] [nM],apparent KD of MS2 coat protein [3] [nM],apparent KD of MS2 coat protein (input ligand: FMN 200 uM) [nM],apparent KD of MS2 coat protein [4] [nM],apparent KD of MS2 coat protein (input ligand: none) [nM]
AGUCCAGCCUGAGCUGGACAAAAGCAUGUACAUGAGGAUCACCCAUGUUCAUGUACAAGCUUUUUGCUCGUCUUAUA [salish99_208a_r3_043] (puzzle: Sensor for hsa-mir-208a),528,14.6,697,,,
"UCGGGCGUACUUGCUGACAUGAGGAUCACCCAUGUAAAUGGGAAGGAUAUGGUACCGUUUCGGUACCAGAAGGUCCUGGGUGCU [salish99_SSNG3_r04_309] (Eterna round: R96, puzzle: Same State NG 3)",,,,2270,674,3840
"GGUGCCAAAUAAGCCUACAUGAGGAUCACCCAUGUAUGUAGGCAGGAUAUCGUUUGCAAAGCAAACGAGAAGGGCUGAGGCACC [Mat - Same State NG 3 - JL Mod - D53] (Eterna round: R96, puzzle: Same State NG 3)",,,,26.1,42.7,81
"AAGUGGAACUGAGGAUAUGGCAUCCGAACAUGAGGAUCACCCAUGUAGUUAGGAAAAGAACGGAGCCAGAAGGUAGGACUCCGC [Soqube] (Eterna round: R96, puzzle: Same State NG 2)",,,,10.6,9.65,15
"GCUCGGACGAUGACCCACAUGAGGAUCACCCAUGUGCUUGGGCAGGAUAUCUAGAUUAAGGAUGUAGAGAAGGGUCGACCGAGC [SameState NG3 #29] (Eterna round: R96, puzzle: Same State NG 3)",,,,345,90.3,211
GGUCCAGCCUGAGCUGGACAAAAGCAUGUACAUGAGGAUCACCCAUGUUCAUGUACAAGCUUUUUGCUCGUCUUAUA [salish99_208a_r3_045] (puzzle: Sensor for hsa-mir-208a),542,15.4,696,,,
AACAAUCUAUCUGAGGAUAUCAUGAAAUAAACAUGAGGAUCACCCAUGUGCAGGAAAACUGCAUUUGAGAAGGCAGAUAGAUUGA [salish99_ss2_r3_048] (puzzle: Same State 2),14.6,106,67.2,,,
"AGAUCAUGACGAGGAUAUGCAACAUGAGGAUCACCCAUGUAUGUUGCAGGACGCGUACGUCCAAUGUAGAAGGCGUCGUGGUCA [JL SSNG2 1.06] (Eterna round: R96, puzzle: Same State NG 2)",,,,40.2,146,150
"UGGUACAUGGGAGGAUAUCUCAUGGAGACAUGAGGAUCACCCAUGUAGUUGGACCGGAAACGGUGAGAGAAGGCCCAUGUACCU [JL SSNG1 3.72] (Eterna round: R96, puzzle: Same State NG 2)",,,,30.2,52.8,59.6
"GAGAGAUGGCUAGGAUAUUCGGUGAUAAUGAUAGAAGAAGGAGCUGACAUGAGGAUCACCCAUGUGGGAAUAAUCCAGAGAGAG [Parity 19 - Jieux - Same State NG 1] (Eterna round: R96, puzzle: Same State NG 1)",,,,167,56.1,96.7
"GAGGGACAGACCAACAUGAGGAUCACCCAUGUCCUCGCAGGUCAGGAUAUUAUUAGGAUCACCAGUGAGAAGGGACGGUGAAGG (Eterna round: R96, puzzle: Same State NG 3)",,,,366,227,521
"CUCGUAUCGGGAGGAUAUGGUGCCUUGUUGGUGCUAGAAGGUCCAACAUGAGGAUCACCCAUGUGCGAGUGGUUGAGAGACCGG [SS NG10LRO15] (Eterna round: R96, puzzle: Same State NG 1)",,,,336,230,399
"UGGUACAUGGGAGGAUAUCUCAUGGAGACAUGAGGAUCACCCAUGUAGUAGGACCGGAAACGGUGAGAGAAGGCCCAUGUACCU [JL SSNG1 3.73] (Eterna round: R96, puzzle: Same State NG 2)",,,,26.6,40.5,51.5
CUCAAAACAAGUUGCAGUGUUCGUCUUUCACAUGAGGAUCACCCAUGUAAUAGCCCAGUGGAAGCGCUCGGGCCACC [Ditixe] (puzzle: Sensor for hsa-mir-208a),55.3,28.9,47.4,,,
"CAUCGUUUGAUAGGAUAUCGCUAUACAUGAGGAUCACCCAUGUUUACCACGCUGGUUUUUCAUACCGAGAAGGAUUCUGAUGAG [salish99_SSNG02_r04_012] (Eterna round: R96, puzzle: Same State NG 2)",,,,55.3,38.3,47.6
"UUAACAUGAGGAUCACCCAUGUAUACGUAGUUUGCAUUUUGACAGGAUAUUGUUUAUCUAUAUAGCAAGAAGGGUCGUUAGUCU [JR_SSNG3_Sub009] (Eterna round: R96, puzzle: Same State NG 3)",,,,27,31.8,41.9

Sequence,apparent KD of MS2 coat protein [1] [nM],apparent KD of MS2 coat protein [2] [nM],apparent KD of MS2 coat protein [3] [nM],apparent KD of MS2 coat protein (input ligand: FMN 200 uM) [nM],apparent KD of MS2 coat protein [4] [nM],apparent KD of MS2 coat protein (input ligand: none) [nM]
"CCGCGCUGUCGAGAGGAUAUGCGGUGAUGGACAUGAGGAUCACCCAUGUUAGCGAUAGCAUUACUGUAGAAGGCUCUACGGCGGC [JL-ss2-3.09 ViennaUCT mod] (Eterna round: R96, puzzle: Same State 2)",,,,11.2,10.2,16.3
"GUAGCAUACCGAGGAUAUUCAUACAUGAGGAUCACCCAUGUUUAAUUAUAGGCCAAAAGGCCUUGGGAGAAGGCGGAAUGCUAC [Xeonanis - 20 Mod14] (Eterna round: R96, puzzle: Same State NG 2)",,,,8.39,10.1,14.4
"AUUGCUAGCACAGGAUAUCAUGCGAAAAUUGCGUGAGAAGGGUGGACGCUGUCAUUCACGGAGGACAUGAGGAUCACCCAUGUC [SameState NG1 #78] (Eterna round: R96, puzzle: Same State NG 1)",,,,54.4,53.4,62.6
UUGCGCUGUCGAGAGGAUAUGCGGUGUUGGACAUGAGGAUCACCCAUGUUUGCGAUAGCUUUACGGUAGAAGGCUCUUCAGCUGC [salish99_ss2_r3_099] (puzzle: Same State 2),,45.8,,,,
"AUUAUUUAUGCAGGAUAUGAUUAACAUGAGGAUCACCCAUGUGGUGUUGUGAGUAAGGAGAGUGAUCAGAAGGGCAUUUUUUUC [JMF's solution 59] (Eterna round: R96, puzzle: Same State NG 2)",,,,381,214,397
"CACGCCUCGGUAGGAUAUGAGGUGCCAUAGGCAACAGCCUAUGGACAUGAGGAUCACCCAUGUCCUCAGAAGGGCCAGGCGUGA [Rexeorar] (Eterna round: R96, puzzle: Same State NG 2)",,,,25.9,66.3,114
"UUGAAGAAUUAAGGAUAUUGAGUACAUAUGUUAAACAUGAGGAUCACCCAUGUGGGUUGCGGUAUCGAGAAGGUAAAUUACUAG [Mat - same State NG 2 - JL mod - D68] (Eterna round: R96, puzzle: Same State NG 2)",,,,90.9,46.8,70.8
"UUAAUUAUGUAAGGAUAUACAUGAGGAUUUCUCGUAGAAGGUACAUUACAUGAGGAUCACCCAUGUGGGUGUCCGUAGACGCCA [JL SSNG1 1.06] (Eterna round: R96, puzzle: Same State NG 1)",,,,,475,
"GGUACUAUCACAGGAUAUGCUAUCCUUUGGGUAGCAGAAGGGUGGUACAUGAGGAUCACCCAUGUGGUGCCAGGGCGUGAGCCC [JL SSNG1 1.97] (Eterna round: R96, puzzle: Same State NG 1)",,,,200,67.9,318
"UGUUGUAUUACAGGAUAUCUAUUGUUGUUAUUUAGAGAAGGGUAUUCACAUGAGGAUCACCCAUGUAUAUACGAGGAAGUUGUG [JMF's solution 75] (Eterna round: R96, puzzle: Same State NG 1)",,,,,41.9,
AUAAAACAUGAGGAUCACCCAUGUCAACAAAGUCGAGGAUAUGUGCAAAUAAAAUAAGAACCAGAAGGCGAAUAAU [salish99_ss1_r3_049] (puzzle: Same State 1),16.2,22.3,37.9,,,
"UUUUCGAACCGAGGAUAUCCUUAUAAGAAACAUGAGGAUCACCCAUGUAAAGGGAAUUAUUUGAAGGAGAAGGCGGAUUUUGUU [JR_SSNG2_Sub053] (Eterna round: R96, puzzle: Same State NG 2)",,,,,33.5,
UAUAAACAUGAGGAUCACCCAUGUAAUAAUAUGGGAGGAUAUCAGAAUGUAUUUAUUUAAUGAGAAGGCCUAAUAU [Mat - Same State 1 - Mod of Eli - D68] (puzzle: Same State 1),46.4,532,645,,,
"GCUGCAUGGGCAGGAUAUGGGUCCAAAGCGCAAGUGCGCUUUGGUACAUGAGGAUCACCCAUGUCCCAGAAGGGCCCAAGCGGC [Inorgeesbi] (Eterna round: R96, puzzle: Same State NG 2)",,,,16.4,87.9,145
"GUAGCAUACCGAGGAUAUUCAUAUUAAAACAUGAGGAUCACCCAUGUUUAGGCCAAAAGGCCUUGGGAGAAGGCGGAAUGCUAC [Xeonanis - 20 Mod4] (Eterna round: R96, puzzle: Same State NG 2)",,,,19.2,17.9,25.1
